In US20160068605A1 (Janssen / Centocor, published 2016):
Values joined by “and” are separate entries in the source; they are usually repeats but may differ in a detail not shown here. Identical values can stand only once.

T1: cyno CD123 ECD displayed on pDisplay-transfected cells (cynomolgus monkey)
T1 construct: ECD anchored on the surface of stably transfected HEK293 cells; also called cynoCD123 SP1 cells; cynoCD123 cells
T1 chain: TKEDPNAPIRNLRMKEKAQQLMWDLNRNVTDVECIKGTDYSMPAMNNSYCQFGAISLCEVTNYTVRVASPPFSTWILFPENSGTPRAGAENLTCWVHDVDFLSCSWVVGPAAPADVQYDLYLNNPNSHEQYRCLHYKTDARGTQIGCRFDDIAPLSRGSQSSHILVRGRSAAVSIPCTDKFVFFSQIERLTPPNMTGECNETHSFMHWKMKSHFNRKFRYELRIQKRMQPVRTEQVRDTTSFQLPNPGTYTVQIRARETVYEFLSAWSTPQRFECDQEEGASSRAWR

T2: Recombinant human CD123 SP1 ECD-His tag protein (human, UniProt P26951 20-305)
T2 construct: bought from R&D Systems (#301-R3/CF); biotinylated for some assays; also called rhCD123 SP1; huCD123 ECD SP1
T2 sequence: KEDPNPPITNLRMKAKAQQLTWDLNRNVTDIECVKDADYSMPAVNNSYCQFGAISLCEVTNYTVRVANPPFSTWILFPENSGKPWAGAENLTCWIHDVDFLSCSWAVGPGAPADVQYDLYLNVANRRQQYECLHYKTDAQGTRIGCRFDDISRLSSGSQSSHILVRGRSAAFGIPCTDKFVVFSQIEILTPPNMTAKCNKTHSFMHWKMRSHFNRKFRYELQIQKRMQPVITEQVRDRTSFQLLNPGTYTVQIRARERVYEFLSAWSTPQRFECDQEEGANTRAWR

T3: Recombinant human CD123 SP2 ECD protein (human, UniProt P26951 101-303)
T3 construct: also called rhCD123 SP2; CD123 ECD SP2
T3 sequence: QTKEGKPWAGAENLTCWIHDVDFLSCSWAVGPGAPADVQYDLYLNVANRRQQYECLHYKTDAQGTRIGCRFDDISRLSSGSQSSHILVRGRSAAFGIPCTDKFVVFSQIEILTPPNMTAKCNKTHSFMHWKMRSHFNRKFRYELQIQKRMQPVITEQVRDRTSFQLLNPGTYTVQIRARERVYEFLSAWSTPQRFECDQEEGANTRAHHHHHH


Experiments:
[1] = target: T1, cyno CD123 ECD displayed on …; assay: MSD cell binding on 293F pDisplay cells; fold change over background; parental 293F cells as control
Procedure: The object of the screening assay was to identify antibodies that bound to cells expressing hCD123 SP1 and SP2 as well as cross reactivity with cells expressing cynoCD123 SP1.
Cells were immobilized and phages were assayed in triplicate. […] 5000 cells per well were plated into a 384 well plate (MA6000, cat. L21XB, MSD) and allowed to adhere for 2 hr. Cells were then blocked with 20% FBS in PBS (Gibco) for 15 mins. Antibody supernatants were then added and left at RT for 1 hr. Cells were washed 3 times with PBS and a ruthenium labeled secondary antibody (Jackson Immuno Research) was then added at 1 μg/mL and incubated for 1 hr at room temperature. A further washing step was then applied and 35 μL per well of MSD Read buffer T (surfactant free) was then added and incubated for 30 min for detection. Plates were then read using Sector Imager 2400 (MSD). Data was normalized to controls and graphed using GraphPad Prism Version 5. A positive binder was determined to be a hit with a signal 3× greater than background (FIGS. 2A, B and C).

[2] = target: T2, Recombinant human CD123 SP1 ECD-His tag …; assay: SPR ProteOn, captured mAb
Procedure: (§1) The biosensor surface was prepared by covalently coupling Goat anti-Human IgG (Fc) to the surface of a GLC chip (BioRad) using the manufacturer instructions for amine-coupling chemistry. […] The RU immobilized also included a goat anti-mouse Fc antibody that was added to capture other antibodies not included in the ones reported here. Since the mixture was 1:1 about 50% of these RU immobilized are expected to be goat anti-human Fc. The kinetic experiments were performed at 25° C. in running buffer (PBS pH 7.4, 0.005% P20, 3 mM EDTA). […] The reference spots (Goat anti-Human IgG (Fc)-modified surface) containing no candidate captured were used as a reference surface. Capture of mAb was followed by 3 min injection (association phase) of antigen at 40 μL/min, followed by 10 min of buffer flow (dissociation phase). […] Data was processed on the instrument software. Double reference subtraction of the data was performed by subtracting the curves generated by buffer injection from the reference-subtracted curves for analyte injections. Kinetic analysis of the data was performed using 1:1 Langmuir binding model with group fit. The result for each mAb was reported in the format of Kₐ (kon or on-rate), Kd (koff or off-rate), KD (Equilibrium dissociation constant) (Table 5).

[3] = target: T3, Recombinant human CD123 SP2 ECD protein; assay: SPR ProteOn, captured mAb
Procedure: as §1

[4] = target: T4, cell-surface CD3 epsilon on primary cynomolgus T cells (cynomolgus monkey, UniProt Q95LI5 22-198); assay: flow cytometry competition with labeled CD3B146 on T cells
T4 construct: whole, on cells; also called cynomolgus CD3e; Cyno T-cells
T4 sequence (Q95LI5 22-198): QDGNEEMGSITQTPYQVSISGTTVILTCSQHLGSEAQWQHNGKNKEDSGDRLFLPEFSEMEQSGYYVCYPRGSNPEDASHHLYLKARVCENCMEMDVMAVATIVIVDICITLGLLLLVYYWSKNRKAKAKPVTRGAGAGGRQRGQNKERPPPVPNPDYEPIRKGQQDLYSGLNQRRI
Source text: (§2) The format involved competition binding using a fixed concentration of labeled anti-CD3 mAb of known affinity and increasing concentrations of unlabeled test Abs (Ashkenazi A et al. PNAS: 88:10535, 1991.).

[5] = target: T5, cell-surface CD3 epsilon on primary human T cells (human, UniProt P07766 23-207); assay: as above
T5 construct: whole, on cells; part of the CD3/TCR complex on the cells
T5 sequence (P07766 23-207): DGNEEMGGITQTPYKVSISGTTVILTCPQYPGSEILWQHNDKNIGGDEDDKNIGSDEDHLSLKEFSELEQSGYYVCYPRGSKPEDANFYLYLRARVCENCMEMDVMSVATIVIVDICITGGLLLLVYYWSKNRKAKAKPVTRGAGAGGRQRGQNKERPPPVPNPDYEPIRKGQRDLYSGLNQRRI
Source text: as §2

Binder	binding result [1]	Kd [2]	koff [2]	kon [2]	binding result [3]	Kd [3]	koff [3]	kon [3]	Kd [4]	Kd [5]
I3RB16 (antibody, IgG1, V domains shown, IgG1) VH: QVQLVQSGAEVKKPGSSVKVSCKASGGTFSSYAISWVRQAPGQGLEWMGGIIPIFGTANYAQKFQGRVTITADESTSTAYMELSSLRSEDTAVYYCARGAVWGDQWFDYWGQGTLVTVSS VL: not shown	no binding (tested: 10 µg/mL)	–	–	–	–	–	–	–	–	–
I3RB33 (antibody, IgG1, V domains shown, IgG1) VH: QVQLVQSGAEVKKPGSSVKVSCKASGGTFSSYGISWVRQAPGQGLEWMGGIIPIFGTANYAQKFQGRVTITADESTSTAYMELSSLRSEDTAVYYCARGYWHWNYDYLDYWGQGTLVTVSS VL: EIVLTQSPATLSLSPGERATLSCRASQSVNDWLAWYQQKPGQAPRLLIYGASNRATGIPARFSGSGSGTDFTLTISSLEPEDFAVYYCQQYKRAPYTFGQGTKVEIK	binds	4.23 nM	0.00177 s⁻¹	417000 M⁻¹ s⁻¹	no binding (tested: 400 nM)	–	–	–	–	–
I3RB40 (antibody, IgG1, V domains shown, IgG1) VH: QVQLVQSGAEVKKPGSSVKVSCKASGGTFSSYAISWVRQAPGQGLEWMGGIIPIFGTANYAQKFQGRVTITADESTSTAYMELSSLRSEDTAVYYCARGQWWADTWFDYWGQGTLVTVSS VL: EIVLTQSPATLSLSPGERATLSCRASQSVAKWLAWYQQKPGQAPRLLIYGASNRATGIPARFSGSGSGTDFTLTISSLEPEDFAVYYCQQYHTAPWTFGQGTKVEIK	no binding (tested: 10 µg/mL)	6.02 nM	0.00346 s⁻¹	574000 M⁻¹ s⁻¹	no binding (tested: 400 nM)	–	–	–	–	–
I3RB30 (antibody, IgG1, V domains shown, IgG1; also called 13RB30) VH: QVQLVQSGAEVKKPGSSVKVSCKASGGTFSSYAISWVRQAPGQGLEWMGWIIPIFGTANYAQKFQGRVTITADESTSTAYMELSSLRSEDTAVYYCARLVYSSDFDYWGQGTLVTVSS VL: EIVLTQSPATLSLSPGERATLSCRASQSVANWLAWYQQKPGQAPRLLIYYASNRATGIPARFSGSGSGTDFTLTISSLEPEDFAVYYCQQYDGWPRTFGQGTKVEIK	no binding (tested: 10 µg/mL)	4.17 nM	0.00302 s⁻¹	725000 M⁻¹ s⁻¹	–	330 nM	0.048 s⁻¹	145000 M⁻¹ s⁻¹	–	–
I3RB36 (antibody, IgG1, V domains shown, IgG1) VH: QVQLVQSGAEVKKPGSSVKVSCKASGGTFSSYGISWVRQAPGQGLEWMGGIIPIFGTANYAQKFQGRVTITADESTSTAYMELSSLRSEDTAVYYCARDLHVWAYSNFDYWGQGTLVTVSS VL: not shown	–	2.47 nM	0.00166 s⁻¹	675000 M⁻¹ s⁻¹	no binding (tested: 400 nM)	–	–	–	–	–
I3RB20 (antibody, IgG1, V domains shown, IgG1) VH: QVQLVQSGAEVKKPGSSVKVSCKASGGTFSSYAISWVRQAPGQGLEWMGGIIPIFGTANYAQKFQGRVTITADESTSTAYMELSSLRSEDTAVYYCARDDQIWGSYHLDYWGQGTLVTVSS VL: not shown	–	1.68 nM	0.00106 s⁻¹	631000 M⁻¹ s⁻¹	–	–	–	–	–	–
I3RB1 (antibody, IgG1, V domains shown, IgG1; also called I3RB01) VH: EVQLLESGGGLVQPGGSLRLSCAASGFTFSDYGMSWVRQAPGKGLEWVSVIRGGGSSKYYADSVKGRFTISRDNSKNTLYLQMNSLRAEDTAVYYCAKHSGSFRFNELDYWGQGTLVTVSS VL: not shown	no binding (tested: 10 µg/mL)	–	–	–	–	–	–	–	–	–
CD3B146 (antibody, IgG1, V domains shown, IgG1 constant region with L234A, L235A, F405L; human lambda constant region; also called CD3B146 hu IgG1-AlaAla F405L) VH: EVQLVESGGGLVQPGGSLRLSCAASGFTFNTYAMNWVRQAPGKGLEWVARIRSKYNNYATYYAASVKGRFTISRDDSKNSLYLQMNSLKTEDTAVYYCARHGNFGNSYVSWFAYWGQGTLVTVSS VL: QTVVTQEPSLTVSPGGTVTLTCRSSTGAVTTSNYANWVQQKPGQAPRGLIGGTNKRAPGTPARFSGSLLGGKAALTLSGVQPEDEAEYYCALWYSNLWVFGGGTKLTVL	–	–	–	–	–	–	–	–	1.1 nM	3.2 nM
I3RB19 (antibody, IgG1, V domains shown, IgG1; also called 13RB19) VH: EVQLLESGGGLVQPGGSLRLSCAASGFTFSNYAMSWVRQAPGKGLEWVSGIRGNGSSTYYADSVKGRFTISRDNSKNTLYLQMNSLRAEDTAVYYCAKGGPIGARFPDYLDYWGQGTLVTVSS VL: DIQMTQSPSSLSASVGDRVTITCRASQSIGDFLNWYQQKPGKAPKLLIYYASSLQSGVPSRFSGSGSGTDFTLTISSLQPEDFATYYCQQSYSTPLTFGQGTKVEIK	no binding (tested: 10 µg/mL)	119 nM	0.0251 s⁻¹	211000 M⁻¹ s⁻¹	–	48.3 nM	0.0161 s⁻¹	334000 M⁻¹ s⁻¹	–	–
I3RB5 (antibody, IgG1, V domains shown, IgG1; also called I3RB05) VH: EVQLLESGGGLVQPGGSLRLSCAASGFTFSGYWMSWVRQAPGKGLEWVSGINYDGGSTYYADSVKGRFTISRDNSKNTLYLQMNSLRAEDTAVYYCAKDHFLAEFDYWGQGTLVTVSS VL: not shown	–	12.8 nM and 12.9 nM	–	–	–	4.88 nM and 4.09 nM	–	–	–	–
CD123 null 2 (bispecific antibody, human IgG4 S228P, lambda, F234A L235A, also called B21M IgG4 x CD3B217) heavy: EVQLLESGGGLVQPGGSLRLSCAASGFTFNTYAMNWVRQAPGKGLEWVARIRSKYNNYATYYADSVKGRFTISRDNSKNTLYLQMNSLRAEDTAVYYCVKHGNFGNSYVSWFAYWGQGTLVTVSSASTKGPSVFPLAPCSRSTSESTAALGCLVKDYFPEPVTVSWNSGALTSGVHTFPAVLQSSGLYSLSSVVTVPSSSLGTKTYTCNVDHKPSNTKVDKRVESKYGPPCPPCPAPEAAGGPSVFLFPPKPKDTLMISRTPEVTCVVVDVSQEDPEVQFNWYVDGVEVHNAKTKPREEQFNSTYRVVSVLTVLHQDWLNGKEYKCKVSNKGLPSSIEKTISKAKGQPREPQVYTLPPSQEEMTKNQVSLTCLVKGFYPSDIAVEWESNGQPENNYKTTPPVLDSDGSFLLYSKLTVDKSRWQEGNVFSCSVMHEALHNHYTQKSLSLSLGK light: QAVVTQEPSLTVSPGGTVTLTCRSSTGAVTTSNYANWVQQKPGQAPRGLIGGTNKRAPGTPARFSGSLLGGKAALTLSGAQPEDEAEYYCALWYSNLWVFGGGTKLTVLGQPKAAPSVTLFPPSSEELQANKATLVCLISDFYPGAVTVAWKADSSPVKAGVETTTPSKQSNNKYAASSYLSLTPEQWKSHRSYSCQVTHEGSTVEKTVAPTECS VH: not shown VL: not shown	–	–	–	–	–	–	–	–	217 nM	266 nM
